According to paper PMC5719984, “The Structure of a Conserved Domain of TamB Reveals a Hydrophobic β Taco Fold” (Structure(London, England:1993), 2017):

Target: the molecule itself
Test: SEC-MALS; 100 μl samples at 1-5 mg/ml on Superdex 200 10/300 GL in 20 mM Tris, 200 mM NaCl, 0.05 % LDAO pH 7.9, 0.6 ml/min

B1: TamB_(963-1138) (domain or fragment, E. coli K12, UniProt P39321 963-1138, looked up)
chain: MDVSPDVVFEATPNLFTLDGRVDVPWARIVVHDLPESAVGVSSDVVMLNDNLQPEEPKTASIPINSNLIVHVGNNVRIDAFGLKARLTGDLNVVQDKQGLGLNGQINIPEGRFHAYGQDLIVRKGELLFSGPPDQPYLNIEAIRNPDATEDDVIAGVRVTGLADEPKAEIFSDPAM
notes: whole TamB has 1,259 amino acids; Cloned into pET-21a via NdeI and XhoI; A selenomethionine-labelled form was used for phasing only; Construct as described by Josts et al., 2014
Q: B1 was tested. Which “stoichiometry N” value did it give?
A: 2
